From US10562947B2, “Compositions and methods for preventing or treating diseases, conditions or processes characterized by aberrant fibroblast proliferation and extracellular matrix deposition” (MOERAE MATRIX, INC., priority 2011, dated 2020)

Columns and labels:
Test in all cases: Kinase Profiling Assay
Format in all cases: biochemical
Settings in all cases: 100 μM peptide
[1] = biological target: CaMKIIδ(h) (Homo sapiens, UniProt Q13557)
Description: (§1) Every kinase activity measurement was conducted in duplicate.
(§2) In addition to determining the IC50 of the compound, the specificity of MK2 inhibitory peptides was assessed by examining activities of all 266 human kinases available for testing in the Millipore kinase profiling service (Table 1).

[2] = biological target: PASK(h) (Homo sapiens, UniProt Q96RG2)
Description: as §1, §2

[3] = biological target: T1, CHK1(h) (Homo sapiens, UniProt O14757)
T1 sequence (O14757 1-476): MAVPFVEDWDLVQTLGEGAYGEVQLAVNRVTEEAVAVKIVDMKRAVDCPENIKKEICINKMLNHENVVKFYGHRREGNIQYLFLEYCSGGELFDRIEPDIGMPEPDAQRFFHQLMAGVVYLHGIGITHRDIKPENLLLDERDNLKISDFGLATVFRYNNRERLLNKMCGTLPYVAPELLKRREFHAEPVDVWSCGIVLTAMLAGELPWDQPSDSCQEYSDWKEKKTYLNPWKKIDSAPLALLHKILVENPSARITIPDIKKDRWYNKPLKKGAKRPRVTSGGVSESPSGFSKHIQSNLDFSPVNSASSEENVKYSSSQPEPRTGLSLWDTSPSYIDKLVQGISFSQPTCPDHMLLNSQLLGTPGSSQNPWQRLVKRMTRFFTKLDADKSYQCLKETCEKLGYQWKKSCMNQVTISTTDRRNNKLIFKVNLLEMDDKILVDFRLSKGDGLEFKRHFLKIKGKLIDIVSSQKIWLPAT
Description: as §1, §2

[4] = biological target: CDK5/p35(h) (Homo sapiens, UniProt Q00535)
Description: as §1, §2

[5] = biological target: Flt3(D835Y)(h) (Homo sapiens, UniProt P36888, D835Y)
Description: as §1, §2

[6] = biological target: T2, PKCμ(h) (Homo sapiens, UniProt Q15139)
T2 construct: purchased Millipore (IC50 Profiler Express service)
T2 sequence (Q15139 1-912): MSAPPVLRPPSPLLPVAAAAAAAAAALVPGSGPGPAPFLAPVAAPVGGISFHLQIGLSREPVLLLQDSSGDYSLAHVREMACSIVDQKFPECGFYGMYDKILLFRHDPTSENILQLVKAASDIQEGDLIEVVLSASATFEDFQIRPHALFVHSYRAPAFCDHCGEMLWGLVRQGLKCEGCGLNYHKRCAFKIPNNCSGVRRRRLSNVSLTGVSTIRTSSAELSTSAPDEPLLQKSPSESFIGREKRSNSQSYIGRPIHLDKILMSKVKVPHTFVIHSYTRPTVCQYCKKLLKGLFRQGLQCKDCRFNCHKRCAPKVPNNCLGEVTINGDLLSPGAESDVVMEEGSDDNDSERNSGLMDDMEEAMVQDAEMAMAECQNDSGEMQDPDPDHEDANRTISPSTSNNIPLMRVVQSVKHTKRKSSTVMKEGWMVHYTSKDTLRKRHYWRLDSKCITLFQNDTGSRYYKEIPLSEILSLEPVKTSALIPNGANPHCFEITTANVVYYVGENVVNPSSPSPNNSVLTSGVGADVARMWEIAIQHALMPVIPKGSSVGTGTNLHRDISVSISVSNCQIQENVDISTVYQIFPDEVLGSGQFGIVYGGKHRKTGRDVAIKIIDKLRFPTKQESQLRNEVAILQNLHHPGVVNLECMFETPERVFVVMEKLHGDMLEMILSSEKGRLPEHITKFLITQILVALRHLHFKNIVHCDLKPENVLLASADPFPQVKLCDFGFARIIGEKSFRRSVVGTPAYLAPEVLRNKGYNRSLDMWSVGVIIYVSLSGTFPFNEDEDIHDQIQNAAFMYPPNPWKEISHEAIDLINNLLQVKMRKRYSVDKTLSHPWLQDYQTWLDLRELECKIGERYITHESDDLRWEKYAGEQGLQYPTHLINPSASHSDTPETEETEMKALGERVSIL
Description: as §1, §2

[7] = biological target: T3, ARK5(h) (Homo sapiens, UniProt O60285)
T3 sequence (O60285 1-661): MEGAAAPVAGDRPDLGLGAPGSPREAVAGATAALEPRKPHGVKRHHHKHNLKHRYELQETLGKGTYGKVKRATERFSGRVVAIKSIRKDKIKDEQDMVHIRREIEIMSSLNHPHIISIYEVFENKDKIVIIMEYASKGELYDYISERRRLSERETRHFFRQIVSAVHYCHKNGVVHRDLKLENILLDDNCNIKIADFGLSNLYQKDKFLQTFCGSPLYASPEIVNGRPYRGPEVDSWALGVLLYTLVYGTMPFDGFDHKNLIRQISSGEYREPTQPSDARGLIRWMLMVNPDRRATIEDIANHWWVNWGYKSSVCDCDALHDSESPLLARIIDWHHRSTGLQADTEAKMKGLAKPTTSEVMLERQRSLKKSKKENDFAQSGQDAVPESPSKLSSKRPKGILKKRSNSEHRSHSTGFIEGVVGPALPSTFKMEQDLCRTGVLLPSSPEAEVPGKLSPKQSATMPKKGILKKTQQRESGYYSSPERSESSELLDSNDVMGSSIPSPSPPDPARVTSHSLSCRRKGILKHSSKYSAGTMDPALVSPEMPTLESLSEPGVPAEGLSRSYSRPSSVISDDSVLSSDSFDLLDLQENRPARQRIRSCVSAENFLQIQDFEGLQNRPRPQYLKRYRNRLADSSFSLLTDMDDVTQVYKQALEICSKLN
Description: as §1, §2

[8] = biological target: cKit(D816V)(h) (Homo sapiens, UniProt P10721, D816V)
Description: as §1, §2

[9] = biological target: FGFR2(h) (Homo sapiens, UniProt P21802)
Description: as §1, §2

[10] = biological target: BRK(h) (Homo sapiens, UniProt Q13882)
Description: as §1, §2

[11] = biological target: MLCK(h) (Homo sapiens, UniProt Q9H1R3)
Description: as §1, §2

[12] = biological target: EphA5(h) (Homo sapiens, UniProt P54756)
Description: as §1, §2

[13] = biological target: MST3(h) (Homo sapiens, UniProt Q9Y6E0)
Description: as §1, §2

[14] = biological target: Met(Y1248D)(h) (Homo sapiens, UniProt P08581, Y1230D)
Description: as §1, §2

Sequence of MST3(h) (Q9Y6E0 whole entry): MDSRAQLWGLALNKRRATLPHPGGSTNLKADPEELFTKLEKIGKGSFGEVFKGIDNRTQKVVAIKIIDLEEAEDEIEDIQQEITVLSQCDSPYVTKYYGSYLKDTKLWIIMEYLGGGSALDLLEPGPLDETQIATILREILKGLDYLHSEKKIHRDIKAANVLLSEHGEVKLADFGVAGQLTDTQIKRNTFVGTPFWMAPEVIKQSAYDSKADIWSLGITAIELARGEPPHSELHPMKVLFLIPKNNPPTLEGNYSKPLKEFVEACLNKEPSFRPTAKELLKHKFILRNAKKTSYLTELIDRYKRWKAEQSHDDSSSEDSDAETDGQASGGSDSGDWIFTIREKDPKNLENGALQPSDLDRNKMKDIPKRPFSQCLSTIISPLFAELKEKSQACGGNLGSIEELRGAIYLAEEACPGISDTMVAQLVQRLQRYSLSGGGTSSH
Sequence of PASK(h) (Q96RG2 whole entry): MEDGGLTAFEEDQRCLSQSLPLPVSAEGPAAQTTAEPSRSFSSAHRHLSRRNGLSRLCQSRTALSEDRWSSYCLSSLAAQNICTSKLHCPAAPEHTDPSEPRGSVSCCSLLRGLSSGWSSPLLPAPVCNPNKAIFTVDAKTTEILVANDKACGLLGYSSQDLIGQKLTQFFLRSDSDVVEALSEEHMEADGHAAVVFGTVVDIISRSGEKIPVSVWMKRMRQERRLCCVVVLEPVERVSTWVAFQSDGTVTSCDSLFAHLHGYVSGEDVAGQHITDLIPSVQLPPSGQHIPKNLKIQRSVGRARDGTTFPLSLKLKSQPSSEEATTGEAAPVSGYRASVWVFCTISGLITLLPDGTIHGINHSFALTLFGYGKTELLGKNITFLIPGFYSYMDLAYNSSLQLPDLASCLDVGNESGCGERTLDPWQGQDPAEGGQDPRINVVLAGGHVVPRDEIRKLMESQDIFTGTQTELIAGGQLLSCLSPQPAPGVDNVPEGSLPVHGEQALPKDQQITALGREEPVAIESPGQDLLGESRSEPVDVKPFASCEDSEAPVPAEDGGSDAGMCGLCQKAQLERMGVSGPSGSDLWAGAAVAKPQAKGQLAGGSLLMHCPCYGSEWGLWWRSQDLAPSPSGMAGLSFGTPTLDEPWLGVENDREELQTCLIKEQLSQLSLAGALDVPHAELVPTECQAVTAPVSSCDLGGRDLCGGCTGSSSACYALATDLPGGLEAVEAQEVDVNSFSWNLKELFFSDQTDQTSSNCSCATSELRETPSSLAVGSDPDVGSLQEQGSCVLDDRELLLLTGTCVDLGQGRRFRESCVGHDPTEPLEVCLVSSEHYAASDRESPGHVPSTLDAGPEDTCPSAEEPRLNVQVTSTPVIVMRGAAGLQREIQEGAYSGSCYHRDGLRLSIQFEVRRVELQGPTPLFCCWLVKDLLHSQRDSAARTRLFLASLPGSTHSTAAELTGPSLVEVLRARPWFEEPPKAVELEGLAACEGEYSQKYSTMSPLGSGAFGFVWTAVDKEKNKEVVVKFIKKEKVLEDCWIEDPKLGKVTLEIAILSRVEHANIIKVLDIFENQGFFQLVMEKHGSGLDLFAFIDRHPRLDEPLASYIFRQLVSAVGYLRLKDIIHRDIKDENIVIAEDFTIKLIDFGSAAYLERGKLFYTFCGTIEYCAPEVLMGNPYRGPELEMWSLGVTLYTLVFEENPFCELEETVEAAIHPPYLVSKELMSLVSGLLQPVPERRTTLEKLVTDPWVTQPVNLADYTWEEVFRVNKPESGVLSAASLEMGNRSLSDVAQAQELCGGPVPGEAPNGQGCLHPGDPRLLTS
Sequence of CaMKIIδ(h) (Q13557 whole entry): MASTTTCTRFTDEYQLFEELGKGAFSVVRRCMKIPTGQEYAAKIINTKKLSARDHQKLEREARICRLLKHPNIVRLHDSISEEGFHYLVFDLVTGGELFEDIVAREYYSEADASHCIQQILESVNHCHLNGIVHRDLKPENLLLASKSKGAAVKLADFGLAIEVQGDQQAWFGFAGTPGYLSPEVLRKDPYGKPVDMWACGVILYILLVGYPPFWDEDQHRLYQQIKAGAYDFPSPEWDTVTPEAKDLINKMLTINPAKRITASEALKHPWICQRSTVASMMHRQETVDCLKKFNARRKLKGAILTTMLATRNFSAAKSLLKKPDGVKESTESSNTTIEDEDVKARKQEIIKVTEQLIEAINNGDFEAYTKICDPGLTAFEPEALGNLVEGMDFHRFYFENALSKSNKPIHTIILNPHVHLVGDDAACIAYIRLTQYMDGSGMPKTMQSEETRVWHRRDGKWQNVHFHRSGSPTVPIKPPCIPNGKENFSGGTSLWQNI
Sequence of EphA5(h) (P54756 25-1037): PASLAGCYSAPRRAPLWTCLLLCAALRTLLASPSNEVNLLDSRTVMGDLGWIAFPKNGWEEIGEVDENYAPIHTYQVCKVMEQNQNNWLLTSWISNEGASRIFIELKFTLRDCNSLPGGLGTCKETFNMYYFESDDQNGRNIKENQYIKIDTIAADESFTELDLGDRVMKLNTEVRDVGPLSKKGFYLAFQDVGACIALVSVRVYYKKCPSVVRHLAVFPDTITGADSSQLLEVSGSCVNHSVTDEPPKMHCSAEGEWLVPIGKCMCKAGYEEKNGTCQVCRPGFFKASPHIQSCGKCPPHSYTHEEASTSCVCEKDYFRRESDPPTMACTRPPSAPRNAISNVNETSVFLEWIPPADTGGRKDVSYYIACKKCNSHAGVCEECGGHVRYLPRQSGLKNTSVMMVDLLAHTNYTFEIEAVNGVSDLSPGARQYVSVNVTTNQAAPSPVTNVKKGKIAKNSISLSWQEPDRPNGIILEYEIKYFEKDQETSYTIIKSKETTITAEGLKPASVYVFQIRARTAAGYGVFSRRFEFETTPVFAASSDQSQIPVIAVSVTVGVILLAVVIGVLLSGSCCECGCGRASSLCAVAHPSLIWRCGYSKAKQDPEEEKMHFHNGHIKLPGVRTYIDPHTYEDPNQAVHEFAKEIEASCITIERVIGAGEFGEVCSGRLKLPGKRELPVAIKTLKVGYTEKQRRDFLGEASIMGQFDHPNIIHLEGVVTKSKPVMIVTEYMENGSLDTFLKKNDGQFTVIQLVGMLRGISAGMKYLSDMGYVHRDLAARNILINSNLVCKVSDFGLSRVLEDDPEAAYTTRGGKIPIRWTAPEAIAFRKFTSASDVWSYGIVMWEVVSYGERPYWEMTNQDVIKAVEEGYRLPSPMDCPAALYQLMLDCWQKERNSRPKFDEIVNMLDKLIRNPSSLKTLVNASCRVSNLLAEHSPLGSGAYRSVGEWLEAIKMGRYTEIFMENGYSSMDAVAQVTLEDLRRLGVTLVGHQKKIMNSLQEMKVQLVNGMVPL
Sequence of BRK(h) (Q13882 whole entry): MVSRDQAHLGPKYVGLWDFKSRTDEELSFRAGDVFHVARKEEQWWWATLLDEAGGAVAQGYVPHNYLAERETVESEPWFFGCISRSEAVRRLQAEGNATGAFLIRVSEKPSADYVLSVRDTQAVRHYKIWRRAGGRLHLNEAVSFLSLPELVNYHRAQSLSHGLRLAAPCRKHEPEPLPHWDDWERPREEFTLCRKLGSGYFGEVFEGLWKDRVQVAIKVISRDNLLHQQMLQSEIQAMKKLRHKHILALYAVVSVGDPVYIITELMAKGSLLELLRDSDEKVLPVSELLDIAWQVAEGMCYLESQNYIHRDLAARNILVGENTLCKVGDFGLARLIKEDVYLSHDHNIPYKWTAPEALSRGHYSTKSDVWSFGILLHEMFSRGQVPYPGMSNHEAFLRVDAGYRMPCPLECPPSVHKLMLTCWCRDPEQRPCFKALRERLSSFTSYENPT
Sequence of CDK5/p35(h) (Q00535 whole entry): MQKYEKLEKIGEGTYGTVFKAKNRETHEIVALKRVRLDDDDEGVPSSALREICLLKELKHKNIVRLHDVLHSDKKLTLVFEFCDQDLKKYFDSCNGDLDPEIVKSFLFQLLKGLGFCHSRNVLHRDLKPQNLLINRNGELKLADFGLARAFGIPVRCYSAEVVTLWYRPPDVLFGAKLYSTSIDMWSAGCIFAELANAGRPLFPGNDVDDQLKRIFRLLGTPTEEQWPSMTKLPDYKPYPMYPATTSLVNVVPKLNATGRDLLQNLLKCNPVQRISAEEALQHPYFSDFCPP
Sequence of CDK5/p35(h) (Q15078 2-307 partner limits assumed): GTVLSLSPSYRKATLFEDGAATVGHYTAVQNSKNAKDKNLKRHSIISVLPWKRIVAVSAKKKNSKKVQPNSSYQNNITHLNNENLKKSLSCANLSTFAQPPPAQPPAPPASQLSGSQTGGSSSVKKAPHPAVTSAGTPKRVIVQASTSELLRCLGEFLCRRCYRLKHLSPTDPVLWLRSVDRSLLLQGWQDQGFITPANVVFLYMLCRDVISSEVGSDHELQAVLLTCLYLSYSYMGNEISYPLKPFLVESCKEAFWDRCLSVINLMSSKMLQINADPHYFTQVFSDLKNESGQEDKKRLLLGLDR
Sequence of MLCK(h) (Q9H1R3 2-596 limits assumed): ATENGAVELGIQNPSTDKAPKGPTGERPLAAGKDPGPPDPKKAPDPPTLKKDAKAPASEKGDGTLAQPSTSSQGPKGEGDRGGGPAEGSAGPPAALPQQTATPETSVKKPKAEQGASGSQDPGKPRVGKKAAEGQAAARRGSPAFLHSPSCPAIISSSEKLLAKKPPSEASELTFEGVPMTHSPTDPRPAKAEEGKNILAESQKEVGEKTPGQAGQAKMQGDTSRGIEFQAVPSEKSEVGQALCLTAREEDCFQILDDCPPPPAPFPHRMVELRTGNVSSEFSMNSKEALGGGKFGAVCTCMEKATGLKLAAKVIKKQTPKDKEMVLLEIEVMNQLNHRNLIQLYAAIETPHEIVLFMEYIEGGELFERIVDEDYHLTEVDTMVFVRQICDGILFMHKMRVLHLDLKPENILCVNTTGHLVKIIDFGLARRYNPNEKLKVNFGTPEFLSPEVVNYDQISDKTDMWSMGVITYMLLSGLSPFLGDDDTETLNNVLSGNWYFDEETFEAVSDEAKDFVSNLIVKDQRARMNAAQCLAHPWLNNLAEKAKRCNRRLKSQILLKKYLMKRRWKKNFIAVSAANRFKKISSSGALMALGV

## FAKLAARLYRKALARQLGVAA [MMI-0300]
[1]
  CaMKIIδ(h) % activity: 1%
[2]
  PASK(h) % activity: 29%
[3]
  CHK1(h) % activity: 91%
[4]
  CDK5/p35(h) % activity: 79%
[5]
  Flt3(D835Y)(h) % activity: 80%
[6]
  PKCμ(h) % activity: 22%
[7]
  ARK5(h) % activity: 78%
[8]
  cKit(D816V)(h) % activity: 60%
[9]
  FGFR2(h) % activity: 14%
[10]
  BRK(h) % activity: 35%
[11]
  MLCK(h) % activity: 2%
[12]
  EphA5(h) % activity: 18%
[13]
  MST3(h) % activity: 45%

## HRRIKAWLKKIKALARQLGVAA (Mammalian) [MMI-0500]
[1]
  CaMKIIδ(h) % activity: 1%
[2]
  PASK(h) % activity: 9%
[3]
  CHK1(h) % activity: 65%
[4]
  CDK5/p35(h) % activity: 59%
[5]
  Flt3(D835Y)(h) % activity: 65%
[6]
  PKCμ(h) % activity: 10%
[7]
  ARK5(h) % activity: 20%
[8]
  cKit(D816V)(h) % activity: 30%
[9]
  FGFR2(h) % activity: 12%
[14]
  Met(Y1248D)(h) % activity: 218%
[10]
  BRK(h) % activity: 41%
[11]
  MLCK(h) % activity: 0%
[12]
  EphA5(h) % activity: 42%
[13]
  MST3(h) % activity: 4%

## KAFAKLAARLYRKALARQLGVAA [MMI-0400]
[1]
  CaMKIIδ(h) % activity: 2%
[2]
  PASK(h) % activity: 28%
[3]
  CHK1(h) % activity: 87%
[4]
  CDK5/p35(h) % activity: 76%
[5]
  Flt3(D835Y)(h) % activity: 71%
[6]
  PKCμ(h) % activity: 14%
[7]
  ARK5(h) % activity: 69%
[8]
  cKit(D816V)(h) % activity: 35%
[9]
  FGFR2(h) % activity: 18%
[14]
  Met(Y1248D)(h) % activity: 31%
[10]
  BRK(h) % activity: 18%
[11]
  MLCK(h) % activity: 1%
[12]
  EphA5(h) % activity: 24%
[13]
  MST3(h) % activity: 36%

## YARAAARQARAKALNRQLGVA (Mammalian) [MMI-0200]
[1]
  CaMKIIδ(h) % activity: 2%
[2]
  PASK(h) % activity: 60%
[4]
  CDK5/p35(h) % activity: 92%
[6]
  PKCμ(h) % activity: 73%
[7]
  ARK5(h) % activity: 93%
[8]
  cKit(D816V)(h) % activity: 118%
[9]
  FGFR2(h) % activity: 73%
[14]
  Met(Y1248D)(h) % activity: 118%
[10]
  BRK(h) % activity: 127%
[12]
  EphA5(h) % activity: 123%
[13]
  MST3(h) % activity: 95%
